Reference: patent publication US20230406885A1, “CYCLIC PEPTIDES FOR TRAPPING INTERLEUKIN-1 BETA” (MERCK SHARP & DOHME LLC, priority 2022, published 2023)
*1 amine or outer side, *2 acyl side, *3 side chain or, on linkers, in order; H or OH if unused. [ ]: non-standard residue; d: D form. Prot4NHCH2CH2Ph = (2S,4R)-4-(phenethylamino)pyrrolidine-2-carboxylic acid, O=C([C@@H]1C[C@@H](N(CCc2ccccc2)[*:3])CN1[*:1])[*:2]; Prot4NHBn = (2S,4R)-4-(benzylamino)pyrrolidine-2-carboxylic acid, O=C([C@@H]1C[C@@H](N(Cc2ccccc2)[*:3])CN1[*:1])[*:2]; Prot4NHEt = (2S,4R)-4-(ethylamino)pyrrolidine-2-carboxylic acid, CCN([C@@H]1C[C@@H](C(=O)[*:2])N([*:1])C1)[*:3]; Phe(4-(4-Ac-piperazinyl)) = CC(=O)N1CCN(c2ccc(C[C@H](N)C(=O)O)cc2)CC1; Trp(4-Cl)(βS-Me) = C[C@@H](c1c[nH]c2cccc(Cl)c12)[C@H](N)C(=O)O; Pro(trans-4-NH2) = O=C([C@@H]1C[C@@H](N[*:3])CN1[*:1])[*:2]; Trp(βS-Me,4-F) = C[C@@H](c1c[nH]c2cccc(F)c12)[C@H](N)C(=O)O; Bip(4'-COOH) = N[C@@H](Cc1ccc(-c2ccc(C(=O)O)cc2)cc1)C(=O)O; 1Nal(3S-Me) = C[C@@H](c1cccc2ccccc12)[C@H](N)C(=O)O; Phe(4-COOH) = N[C@@H](Cc1ccc(C(=O)O)cc1)C(=O)O; hTyr = N[C@@H](CCc1ccc(O)cc1)C(=O)O; dDab = NCC[C@@H](N)C(=O)O; dNMeA = CN[C@H](C)C(=O)O; Dap = NC[C@H](N)C(=O)O

molecular target: Recombinant human IL-1β (BioLegend 579404) (human, UniProt P01584 117-269); experiment: cell-based or functional assay

MRC5 IC50 [nM]	Binder
0.0329	cyclo([Bip(4'-COOH)]W[Phe(4-COOH)]G[Prot4NHCH2CH2Ph][1Nal(3S-Me)]D[dNMeA]G[Bip(4'-COOH)]W[Dap][dA][hTyr]) (SMILES C[C@@H]1C(=O)NCC(=O)N[C@@H](Cc2ccc(-c3ccc(C(=O)O)cc3)cc2)C(=O)N[C@@H](Cc2c[nH]c3ccccc23)C(=O)N[C@@H](CN)C(=O)N[C@H](C)C(=O)N[C@@H](CCc2ccc(O)cc2)C(=O)N[C@@H](Cc2ccc(-c3ccc(C(=O)O)cc3)cc2)C(=O)N[C@@H](Cc2c[nH]c3ccccc23)C(=O)N[C@@H](Cc2ccc(C(=O)O)cc2)C(=O)NCC(=O)N2C[C@H](NCCc3ccccc3)C[C@H]2C(=O)N[C@@H]([C@@H](C)c2cccc3ccccc23)C(=O)N[C@@H](CC(=O)O)C(=O)N1C) [SEQ ID NO: 83]
0.255	cyclo([Bip(4'-COOH)]W[Phe(4-COOH)]G[Pro(trans-4-NH2)][Trp(βS-Me,4-F)]N[dNMeA]G[Bip(4'-COOH)]KL[dDab][hTyr]) (SMILES CC(C)C[C@@H]1NC(=O)[C@H](CCCCN)NC(=O)[C@H](Cc2ccc(-c3ccc(C(=O)O)cc3)cc2)NC(=O)CNC(=O)[C@@H](C)N(C)C(=O)[C@H](CC(N)=O)NC(=O)[C@H]([C@@H](C)c2c[nH]c3cccc(F)c23)NC(=O)[C@@H]2C[C@@H](N)CN2C(=O)CNC(=O)[C@H](Cc2ccc(C(=O)O)cc2)NC(=O)[C@H](Cc2c[nH]c3ccccc23)NC(=O)[C@H](Cc2ccc(-c3ccc(C(=O)O)cc3)cc2)NC(=O)[C@H](CCc2ccc(O)cc2)NC(=O)[C@@H](CCN)NC1=O) [SEQ ID NO: 81]
0.0157	cyclo([Bip(4'-COOH)]W[Phe(4-COOH)]G[Prot4NHBn][1Nal(3S-Me)]D[dNMeA]G[Bip(4'-COOH)]W[Dap][dA][hTyr]) (SMILES C[C@@H]1C(=O)NCC(=O)N[C@@H](Cc2ccc(-c3ccc(C(=O)O)cc3)cc2)C(=O)N[C@@H](Cc2c[nH]c3ccccc23)C(=O)N[C@@H](CN)C(=O)N[C@H](C)C(=O)N[C@@H](CCc2ccc(O)cc2)C(=O)N[C@@H](Cc2ccc(-c3ccc(C(=O)O)cc3)cc2)C(=O)N[C@@H](Cc2c[nH]c3ccccc23)C(=O)N[C@@H](Cc2ccc(C(=O)O)cc2)C(=O)NCC(=O)N2C[C@H](NCc3ccccc3)C[C@H]2C(=O)N[C@@H]([C@@H](C)c2cccc3ccccc23)C(=O)N[C@@H](CC(=O)O)C(=O)N1C) [SEQ ID NO: 82]
0.0543	cyclo([Phe(4-(4-Ac-piperazinyl))]W[Phe(4-COOH)]G[Pro(trans-4-NH2)][Trp(4-Cl)(βS-Me)]D[dNMeA]G[Bip(4'-COOH)]WG[dDab][hTyr]) (SMILES CC(=O)N1CCN(c2ccc(C[C@@H]3NC(=O)[C@H](CCc4ccc(O)cc4)NC(=O)[C@@H](CCN)NC(=O)CNC(=O)[C@H](Cc4c[nH]c5ccccc45)NC(=O)[C@H](Cc4ccc(-c5ccc(C(=O)O)cc5)cc4)NC(=O)CNC(=O)[C@@H](C)N(C)C(=O)[C@H](CC(=O)O)NC(=O)[C@H]([C@@H](C)c4c[nH]c5cccc(Cl)c45)NC(=O)[C@@H]4C[C@@H](N)CN4C(=O)CNC(=O)[C@H](Cc4ccc(C(=O)O)cc4)NC(=O)[C@H](Cc4c[nH]c5ccccc45)NC3=O)cc2)CC1) [SEQ ID NO: 85]
0.0258	cyclo([Bip(4'-COOH)]W[Phe(4-COOH)]G[Prot4NHEt][1Nal(3S-Me)]D[dNMeA]G[Bip(4'-COOH)]W[Dap][dA][hTyr]) (SMILES CCN[C@@H]1C[C@H]2C(=O)N[C@@H]([C@@H](C)c3cccc4ccccc34)C(=O)N[C@@H](CC(=O)O)C(=O)N(C)[C@H](C)C(=O)NCC(=O)N[C@@H](Cc3ccc(-c4ccc(C(=O)O)cc4)cc3)C(=O)N[C@@H](Cc3c[nH]c4ccccc34)C(=O)N[C@@H](CN)C(=O)N[C@H](C)C(=O)N[C@@H](CCc3ccc(O)cc3)C(=O)N[C@@H](Cc3ccc(-c4ccc(C(=O)O)cc4)cc3)C(=O)N[C@@H](Cc3c[nH]c4ccccc34)C(=O)N[C@@H](Cc3ccc(C(=O)O)cc3)C(=O)NCC(=O)N2C1) [SEQ ID NO: 84]
